Measurements as given in the Human Domainome abundance scans (Beltran et al. 2025).
± gives the uncertainty stated by the source.

B1: Glucocorticoid receptor, residues 419 to 494; numbered along this chain, P04150 (parent)
chain: KLCLVCSDEASGCHYGVLTCGSCKVFFKRAVEGQHNYLCAGRNDCIIDKIRRKNCPACRYRKCLQAGMNLEARKTK

Variants of: B1
Assay: abundance fitness (aPCA) (normalised: wild type 0, dead -1); higher = more abundant; growth selection in yeast, the domain comes from the species named
Conditions: Homo sapiens

| Variant | abundance fitness |
| --- | --- |
| KLCLVCSDEASGCHYGVLTCGSCKVFFKRAVQGQHNYLCAGRNDCIIDKIRRKNCPACRYRKCLQAGMNLEARKTK | -0.08 ± 0.046 |
| KLCLVCSDEASGCHYGVLTCGSCKVFFKRAVRGQHNYLCAGRNDCIIDKIRRKNCPACRYRKCLQAGMNLEARKTK | -0.021 ± 0.032 |
| KLCLVCSDEASGCHYGVLTCGSCKVFFKRAVFGQHNYLCAGRNDCIIDKIRRKNCPACRYRKCLQAGMNLEARKTK | -0.192 ± 0.074 |
| KLCLVCSDEASGCHYGVLTCGSCKVFFKRAVAGQHNYLCAGRNDCIIDKIRRKNCPACRYRKCLQAGMNLEARKTK | -0.166 ± 0.041 |
| KLCLVCSDEASGCHYGVLTCGSCKVFFKRAVSGQHNYLCAGRNDCIIDKIRRKNCPACRYRKCLQAGMNLEARKTK | -0.049 ± 0.034 |
| KLCLVCSDEASGCHYGVLTCGSCKVFFKRAVLGQHNYLCAGRNDCIIDKIRRKNCPACRYRKCLQAGMNLEARKTK | -0.073 ± 0.032 |
| KLCLVCSDEASGCHYGVLTCGSCKVFFKRAVGGQHNYLCAGRNDCIIDKIRRKNCPACRYRKCLQAGMNLEARKTK | -0.04 ± 0.036 |
| KLCLVCSDEASGCHYGVLTCGSCKVFFKRAVCGQHNYLCAGRNDCIIDKIRRKNCPACRYRKCLQAGMNLEARKTK | -0.031 ± 0.056 |
| KLCLVCSDEASGCHYGVLTCGSCKVFFKRAVDGQHNYLCAGRNDCIIDKIRRKNCPACRYRKCLQAGMNLEARKTK | -0.015 ± 0.07 |
| KLCLVCSDEASGCHYGVLTCGSCKVFFKRAVNGQHNYLCAGRNDCIIDKIRRKNCPACRYRKCLQAGMNLEARKTK | -0.059 ± 0.059 |
| KLCLVCSDEASGCHYGVLTCGSCKVFFKRAVPGQHNYLCAGRNDCIIDKIRRKNCPACRYRKCLQAGMNLEARKTK | -0.388 ± 0.073 |
| KLCLVCSDEASGCHYGVLTCGSCKVFFKRAVHGQHNYLCAGRNDCIIDKIRRKNCPACRYRKCLQAGMNLEARKTK | -0.058 ± 0.073 |
| KLCLVCSDEASGCHYGVLTCGSCKVFFKRAVKGQHNYLCAGRNDCIIDKIRRKNCPACRYRKCLQAGMNLEARKTK | 0.01 ± 0.049 |
| KLCLVCSDEASGCHYGVLTCGSCKVFFKRAVWGQHNYLCAGRNDCIIDKIRRKNCPACRYRKCLQAGMNLEARKTK | -0.201 ± 0.046 |
| KLCLVCSDEASGCHYGVLTCGSCKVFFKRAVVGQHNYLCAGRNDCIIDKIRRKNCPACRYRKCLQAGMNLEARKTK | -0.051 ± 0.036 |
| KLCLVCSDEASGCHYGVLTCGSCKVFFKRAVTGQHNYLCAGRNDCIIDKIRRKNCPACRYRKCLQAGMNLEARKTK | -0.007 ± 0.041 |
| KLCLVCSDEASGCHYGVLTCGSCKVFFKRAVYGQHNYLCAGRNDCIIDKIRRKNCPACRYRKCLQAGMNLEARKTK | -0.131 ± 0.065 |
| KLCLVCSDEASGCHYGVLTCGSCKVFFKRAVEGQHAYLCAGRNDCIIDKIRRKNCPACRYRKCLQAGMNLEARKTK | -0.012 ± 0.036 |

| Variant | abundance fitness |
| --- | --- |
| KLCLVCSDEASGCHYGVLTCGSCKVFFKRAVEGQHCYLCAGRNDCIIDKIRRKNCPACRYRKCLQAGMNLEARKTK | -0.133 ± 0.066 |
| KLCLVCSDEASGCHYGVLTCGSCKVFFKRAVEGFHNYLCAGRNDCIIDKIRRKNCPACRYRKCLQAGMNLEARKTK | -0.256 ± 0.12 |
| KLCLVCSDEASGCHYGVLTCGSCKVFFKRAVEGVHNYLCAGRNDCIIDKIRRKNCPACRYRKCLQAGMNLEARKTK | -0.073 ± 0.039 |
| KLCLVCSDEASGCHYGVLTCGSCKVFFKRAVEGEHNYLCAGRNDCIIDKIRRKNCPACRYRKCLQAGMNLEARKTK | -0.051 ± 0.051 |
| KLCLVCSDEASGCHYGVLTCGSCKVFFKRAVEGKHNYLCAGRNDCIIDKIRRKNCPACRYRKCLQAGMNLEARKTK | -0.035 ± 0.046 |
| KLCLVCSDEASGCHYGVLTCGSCKVFFKRAVEGAHNYLCAGRNDCIIDKIRRKNCPACRYRKCLQAGMNLEARKTK | -0.016 ± 0.038 |
| KLCLVCSDEASGCHYGVLTCGSCKVFFKRAVEGIHNYLCAGRNDCIIDKIRRKNCPACRYRKCLQAGMNLEARKTK | -0.188 ± 0.093 |
| KLCLVCSDEASGCHYGVLTCGSCKVFFKRAVEGDHNYLCAGRNDCIIDKIRRKNCPACRYRKCLQAGMNLEARKTK | -0.046 ± 0.074 |
| KLCLVCSDEASGCHYGVLTCGSCKVFFKRAVEGHHNYLCAGRNDCIIDKIRRKNCPACRYRKCLQAGMNLEARKTK | -0.14 ± 0.098 |
| KLCLVCSDEASGCHYGVLTCGSCKVFFKRAVEGRHNYLCAGRNDCIIDKIRRKNCPACRYRKCLQAGMNLEARKTK | 0.002 ± 0.032 |
| KLCLVCSDEASGCHYGVLTCGSCKVFFKRAVEGWHNYLCAGRNDCIIDKIRRKNCPACRYRKCLQAGMNLEARKTK | -0.136 ± 0.046 |
| KLCLVCSDEASGCHYGVLTCGSCKVFFKRAVEGYHNYLCAGRNDCIIDKIRRKNCPACRYRKCLQAGMNLEARKTK | -0.136 ± 0.095 |
| KLCLVCSDEASGCHYGVLTCGSCKVFFKRAVEGNHNYLCAGRNDCIIDKIRRKNCPACRYRKCLQAGMNLEARKTK | 0.08 ± 0.087 |
| KLCLVCSDEASGCHYGVLTCGSCKVFFKRAVEGPHNYLCAGRNDCIIDKIRRKNCPACRYRKCLQAGMNLEARKTK | -0.114 ± 0.051 |
| KLCLVCSDEASGCHYGVLTCGSCKVFFKRAVEGCHNYLCAGRNDCIIDKIRRKNCPACRYRKCLQAGMNLEARKTK | -0.028 ± 0.078 |
| KLCLVCSDEASGCHYGVLTCGSCKVFFKRAVEGLHNYLCAGRNDCIIDKIRRKNCPACRYRKCLQAGMNLEARKTK | -0.099 ± 0.04 |
| KLCLVCSDEASGCHYGVLTCGSCKVFFKRAVEGMHNYLCAGRNDCIIDKIRRKNCPACRYRKCLQAGMNLEARKTK | 0.017 ± 0.043 |
| KLCLVCSDEASGCHYGVLTCGSCKVFFKRAVEGTHNYLCAGRNDCIIDKIRRKNCPACRYRKCLQAGMNLEARKTK | -0.064 ± 0.045 |
